Measured values published in patent CN114904015A (JIANGSU MAIWEIKANG NEW DRUG RES AND DEVELOPMENT CO LTD, dated 2022).
Substitutions are numbered along the chain they refer to. One block for each binder: values may come before it.

Assays:
[1] = target: T1, 人CLDN18.2 (human CLDN18.2), expressed on the cell surface (human, UniProt P56856-2 1-261); experiment: FACS (MFI) on CHO/CLDN18.2 cells, from 5 μg/mL in 3-fold dilutions
T1 construct: whole, on cells; also called CHOK1细胞表面稳定表达人CLDN18.2; CHO/CLDN18.2

[2] = target: T1, 人CLDN18.2 (human CLDN18.2), expressed …; experiment: cell-based or functional assay
[3] = target: T1, 人CLDN18.2 (human CLDN18.2), expressed …; experiment: cell-based or functional assay; remark: listed apart in the source

B1: 8k13-hz35 (antibody, IgG1, V domains shown)
VH: EVQLVQSGAEVKKPGSSVKVSCKASGYAFSNYWMNWVRQAPGQGLEWMGQIYPGSGDTKYSGKFQSRVTITADKSTSTAYMELSSLRSEDTAVYYCARFYYGNVMDYWGQGTLVTVSS
VL: DIVLTQSPDSLAVSLGERATINCKSSQTLLSGGNQKNYLTWYQQKPGQPPKLLIYWASTRESGVPDRFSGSGSGTDFTLTISSLQAEDVAVYYCQQGYSYPLTFGQGTKLEIK
notes: Humanised IgG1 / kappa; also called 本发明的裸抗-2; hz8k13-hz35; not shown: human kappa light chain constant region
- binding result [1]: binds

B2: 16k15-hz35 (antibody, IgG1, V domains shown)
VH: EVQLVESGGGLVQPGGSLRLSCAGSGITLSTYAMSWVRQAPGKGLEWVSSIISGGITYYLDSVKGRFTISRDNAKNTLYLQMNSLRAEDTAVYYCARKYHGNALDYWGQGTLVTVSS
VL: B1 VL with L4M, T28S, G32S, K36R, L52K, G97N, S99F
notes: Humanised IgG1 / kappa; also called 本发明的裸抗-1; not shown: human kappa light chain constant region
- binding result [1]: binds

B4: 8k13-hz24 (antibody, V domains shown, not shown: large carriers)
VH: B1 VH with E1Q, S77N
VL: B1 VL with V89L
- ADCC reporter (Jurkat FcγRIIIa-FcεRIaγ / NFAT-luciferase) EC50(nM), target-expressing BxPC3 cells [2]: 0.304 nM
- ADCC reporter (Jurkat FcγRIIIa-FcεRIaγ / NFAT-luciferase) EC50(nM), target-expressing CHOK1 cells [2]: 0.589 nM
- ADCC reporter (Jurkat FcγRIIIa-FcεRIaγ / NFAT-luciferase) EC50(nM), target-expressing NCI-N87 cells [2]: 0.15 nM
- CDC EC50(nM), BxPC3 cells stably expressing human CLDN18.2 [3]: 28.5 nM
- CDC EC50(nM), CHOK1 cells stably expressing human CLDN18.2 [3]: 21.3 nM
- CDC EC50(nM), NCI-N87 cells stably expressing human CLDN18.2 [3]: 57.7 nM

Results, then the binder that gave them:

- ADCC reporter (Jurkat FcγRIIIa-FcεRIaγ / NFAT-luciferase) EC50(nM), target-expressing BxPC3 cells [2]: 0.176 nM
- ADCC reporter (Jurkat FcγRIIIa-FcεRIaγ / NFAT-luciferase) EC50(nM), target-expressing CHOK1 cells [2]: 0.712 nM
- ADCC reporter (Jurkat FcγRIIIa-FcεRIaγ / NFAT-luciferase) EC50(nM), target-expressing NCI-N87 cells [2]: 0.0677 nM
- CDC EC50(nM), BxPC3 cells stably expressing human CLDN18.2 [3]: 12.2 nM
- CDC EC50(nM), CHOK1 cells stably expressing human CLDN18.2 [3]: 5.2 nM
- CDC EC50(nM), NCI-N87 cells stably expressing human CLDN18.2 [3]: 17.4 nM
B3: 16k15-hz22 (antibody, V domains shown, not shown: large carriers)
VH: B2 VH with N83S
VL: B1 VL with L4M, T28S, G32S, K36R, L52K, V89L, Q96N, G97N, S99F

- ADCC reporter (Jurkat FcγRIIIa-FcεRIaγ / NFAT-luciferase) EC50(nM), target-expressing BxPC3 cells [2]: 0.106 nM
- ADCC reporter (Jurkat FcγRIIIa-FcεRIaγ / NFAT-luciferase) EC50(nM), target-expressing CHOK1 cells [2]: 0.593 nM
- ADCC reporter (Jurkat FcγRIIIa-FcεRIaγ / NFAT-luciferase) EC50(nM), target-expressing NCI-N87 cells [2]: 0.0909 nM
- CDC EC50(nM), BxPC3 cells stably expressing human CLDN18.2 [3]: 52.2 nM
- CDC EC50(nM), CHOK1 cells stably expressing human CLDN18.2 [3]: 30.4 nM
- CDC EC50(nM), NCI-N87 cells stably expressing human CLDN18.2 [3]: 474 nM
B5: IMAB362 (antibody, human IgG1, kappa, V domains shown)
VH: QVQLQQPGAELVRPGASVKLSCKASGYTFTSYWINWVKQRPGQGLEWIGNIYPSDSYTNYNQKFKDKATLTVDKSSSTAYMQLSSPTSEDSAVYYCTRSWRGNSFDYWGQGTTLTVSS
VL: DIVMTQSPSSLTVTAGEKVTMSCKSSQSLLNSGNQKNYLTWYQQKPGQPPKLLIYWASTRESGVPDRFTGSGSGTDFTLTISSVQAEDLAVYYCQNDYSYPFTFGSGTKLEIKR
